Source: patent US20150368357A1

Assays:
[1] = molecular target: HER2 (Human Epidermal Growth Factor Receptor 2) expressed on SK-BR-3 cells (human) (UniProt P04626); assay: flow cytometry, SK-BR-3 cells; mAb 50 ng/ml as headed
[2] = molecular target: HER2 (Human Epidermal Growth Factor Receptor 2) expressed on SK-BR-3 cells (human) (UniProt P04626); assay: flow cytometry, SK-BR-3 cells; mAb 0.4 ng/ml as headed
[3] = molecular target: HER2 (Human Epidermal Growth Factor Receptor 2) expressed on SK-BR-3 cells (human) (UniProt P04626); assay: flow cytometry, SK-BR-3 cells; mAb 0.2 ng/ml as headed

MFI [1]: 16 MFI
MFI [2]: 0 MFI
MFI [3]: 0 MFI
Substance: Anti-idiotypic FVIII (a chimeric anti-Factor VIII antibody produced by rat hybridoma YB2/0)
